One assay deals with T1, ME2 (malic enzyme 2) (Homo sapiens, UniProt P23368).
T1 construct: for the malate assay purified from overexpressing 293T cells treated with cisplatin
Briefly: […]-pyruvate binding to Flag-bead-bound ME2, scintillation counting.

Assay [1] has as its target T2, ME2-flag recombinant protein (WT) (UniProt P23368 19-584).
T2 construct: malic enzyme 2 (ME2), wild type; If it was made in mammalian cells, the mitochondrial transit peptide is probably removed (surmise); also called purified ME2-flag protein; ME2-flag WT; not shown: Flag, C-terminal, kept
Briefly: pull-down; ME2-flag recombinant protein bound to Flag beads, incubated with recombinant ACAT1 or SIRT4 with or without pyruvate (increasing concentrations) for 20 min at room temperature, unbound protein washed out, western blot. The following applies: both partners purified.

Assay [2] addresses T3, ME2-flag R511A recombinant protein (UniProt P23368 19-584, R511A).
T3 construct: Same construct as m7, with the mutation; also called ME2 R511A; source: recombinant, purified; not shown: Flag, C-terminal, kept
The description is as above. The following applies: both partners purified.

As usually defined, the Kd is the concentration at which binding is half-saturated. Read a low Kd as a tighter complex.

T2 sequence (P23368 19-584): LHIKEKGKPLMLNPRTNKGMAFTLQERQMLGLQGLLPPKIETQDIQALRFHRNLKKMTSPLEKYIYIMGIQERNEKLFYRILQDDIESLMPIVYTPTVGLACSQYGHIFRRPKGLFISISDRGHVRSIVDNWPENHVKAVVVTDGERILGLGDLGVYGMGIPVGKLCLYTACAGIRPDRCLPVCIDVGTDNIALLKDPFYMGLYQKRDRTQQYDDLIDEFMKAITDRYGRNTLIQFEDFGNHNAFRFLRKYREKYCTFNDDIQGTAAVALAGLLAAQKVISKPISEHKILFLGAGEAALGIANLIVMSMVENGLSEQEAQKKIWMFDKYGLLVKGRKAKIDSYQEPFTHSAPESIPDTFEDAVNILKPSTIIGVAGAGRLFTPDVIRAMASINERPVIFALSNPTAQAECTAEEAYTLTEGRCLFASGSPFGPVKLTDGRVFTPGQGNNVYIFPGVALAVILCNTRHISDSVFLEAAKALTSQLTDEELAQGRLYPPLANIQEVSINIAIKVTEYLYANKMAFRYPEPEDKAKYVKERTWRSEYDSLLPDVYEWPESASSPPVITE
T3 sequence (P23368 19-584 R511A): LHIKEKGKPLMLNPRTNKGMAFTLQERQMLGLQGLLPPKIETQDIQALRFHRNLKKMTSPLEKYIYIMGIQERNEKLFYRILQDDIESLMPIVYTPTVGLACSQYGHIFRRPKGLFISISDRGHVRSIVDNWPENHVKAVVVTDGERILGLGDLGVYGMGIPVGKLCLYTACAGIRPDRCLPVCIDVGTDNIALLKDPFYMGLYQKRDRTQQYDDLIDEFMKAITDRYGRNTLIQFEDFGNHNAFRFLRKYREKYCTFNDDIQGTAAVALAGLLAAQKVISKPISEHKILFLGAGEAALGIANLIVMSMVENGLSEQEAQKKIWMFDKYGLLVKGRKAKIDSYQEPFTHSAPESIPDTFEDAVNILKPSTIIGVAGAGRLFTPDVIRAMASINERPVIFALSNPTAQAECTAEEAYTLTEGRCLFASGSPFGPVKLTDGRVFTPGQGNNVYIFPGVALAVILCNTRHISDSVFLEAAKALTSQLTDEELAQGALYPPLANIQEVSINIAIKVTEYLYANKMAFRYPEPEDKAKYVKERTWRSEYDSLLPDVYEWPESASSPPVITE
T1 sequence (P23368 19-584): as the sequence (P23368 19-584) above

As for `CC(=O)C(=O)O` [pyruvate], at ME2 (malic enzyme 2), the Kd was ~6.17 µM.

B1: recombinant SIRT4 (enzyme, UniProt Q9Y6E7 29-314, looked up)
chain: IGLFVPASPPLDPEKVKELQRFITLSKRLLVMTGAGISTESGIPDYRSEKVGLYARTDRRPIQHGDFVRSAPIRQRYWARNFVGWPQFSSHQPNPAHWALSTWEKLGKLYWLVTQNVDALHTKAGSRRLTELHGCMDRVLCLDCGEQTPRGVLQERFQVLNPTWSAEAHGLAPDGDVFLSEEQVRSFQVPTCVQCGGHLKPDVVFFGDTVNPDKVDFVHKRVKEADSLLVVGSSLQVYSGYRFILTAWEKKLPIAILNIGPTRSDDLACLKLNSRCGELLPLIDPC
notes: SIRT4, recombinant protein; also called purified, recombinant SIRT4; source: recombinant, purified
In the case of B1, the binding result in assay [1] and in assay [2] was “binds” each time.

B2: recombinant ACAT1 (enzyme, UniProt P24752 34-427, looked up)
chain: VSKPTLKEVVIVSATRTPIGSFLGSLSLLPATKLGSIAIQGAIEKAGIPKEEVKEAYMGNVLQGGEGQAPTRQAVLGAGLPISTPCTTINKVCASGMKAIMMASQSLMCGHQDVMVAGGMESMSNVPYVMNRGSTPYGGVKLEDLIVKDGLTDVYNKIHMGSCAENTAKKLNIARNEQDAYAINSYTRSKAAWEAGKFGNEVIPVTVTVKGQPDVVVKEDEEYKRVDFSKVPKLKTVFQKENGTVTAANASTLNDGAAALVLMTADAAKRLNVTPLARIVAFADAAVEPIDFPIAPVYAASMVLKDVGLKKEDIAMWEVNEAFSLVVLANIKMLEIDPQKVNINGGAVSLGHPIGMSGARIVGHLTHALKQGEYGLASICNGGGGASAMLIQKL
notes: acetyl-CoA acetyltransferase 1 (ACAT1), recombinant protein; also called purified, recombinant ACAT1; source: recombinant, purified
Regarding B2, the binding result in assay [1] and in assay [2] was “binds” throughout.

Values taken from article PMC11984883, “ACAT1‐Mediated ME2 Acetylation Drives Chemoresistance in Ovarian Cancer by Linking Glutaminolysis to Lactate Production” (Advanced Science, 2025).
